In this experiment the target is T1, Atox1 (Homo sapiens, UniProt O00244).
T1 chain: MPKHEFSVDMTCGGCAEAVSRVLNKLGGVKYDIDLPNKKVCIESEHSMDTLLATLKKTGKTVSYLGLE
Description: SPR. (Surface plasmon resonance follows binding to a sensor surface in real time, without labels.)

B1: Memo1 (protein)
chain: MSNRVVCREASHAGSWYTASGPQLNAQLEGWLSQVQSTKRPARAIIAPHAGYTYCGSCAAHAYKQVDPSITRRIFILGPSHHVPLSRCALSSVDIYRTPLYDLRIDQKIYGELWKTGMFERMSLQTDEDEHSIEMHLPYTAKAMESHKDEFTIIPVLVGALSESKEQEFGKLFSKYLADPSNLFVVSSDFCHWGQRFRYSYYDESQGEIYRSIEHLDKMGMSIIEQLDPVSFSNYLKKYHNTICGRHPIGVLLNAITELQKNGMNMSFSFLNYAQSSQCRNWQDSSVSYAAGALTVH
modifications: Cu(I)-loaded Atox1
In general, Kd refers to the concentration at which binding is half-saturated. Low readings indicate a tighter complex, high ones a looser complex. In turn, B1 yielded a Kd of 210 nM.

Source of the values: publication PMC9477392 (2022).
